Reference: paper PMC7406314

Biological target: ARPC1A-STREP (human) (UniProt Q92747)
Assay: co-purification of a co-expressed recombinant complex; Arp2/3-C1A complexes with ARPC5, ARPC5L or hybrids co-expressed in Sf21 cells and purified as previously described (Abella et al., 2016); Coomassie-stained gel, band quantification with Fiji normalised to ARPC2; immunoblot of the purified complexes

Chain of ARPC5L (Q9BPX5 whole entry): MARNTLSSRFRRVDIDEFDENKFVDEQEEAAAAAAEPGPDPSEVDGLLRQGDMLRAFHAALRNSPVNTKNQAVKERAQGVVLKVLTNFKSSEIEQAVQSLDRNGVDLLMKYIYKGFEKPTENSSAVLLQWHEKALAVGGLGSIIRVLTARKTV
Chain of UniProt Q92747 (Q92747 whole entry): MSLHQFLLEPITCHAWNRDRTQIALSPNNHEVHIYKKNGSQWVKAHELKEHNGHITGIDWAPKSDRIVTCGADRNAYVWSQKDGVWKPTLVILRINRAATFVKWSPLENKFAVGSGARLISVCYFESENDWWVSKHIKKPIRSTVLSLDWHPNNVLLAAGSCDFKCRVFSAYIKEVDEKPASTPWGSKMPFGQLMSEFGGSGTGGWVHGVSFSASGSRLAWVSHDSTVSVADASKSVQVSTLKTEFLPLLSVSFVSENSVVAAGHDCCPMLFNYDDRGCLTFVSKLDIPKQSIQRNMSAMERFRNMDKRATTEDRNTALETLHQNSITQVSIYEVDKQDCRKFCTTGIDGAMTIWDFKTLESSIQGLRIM

gel band ratio to ARPC2 in the purified Arp2/3-C1A complex (subunit occupancy): 0.52
Substance: ARPC5L (from UniProt Q9BPX5 1-153) (natural protein)
